Measurements taken from patent publication US20070054846A1, “Bcl-w structure and uses therefor” (priority 2002, published 2007).
Numbering of substitutions follows the chain as printed. In names and notes the source's numbering stands.

T1: full length Bcl-w (Homo sapiens, UniProt Q92843, Q133R)
T1 sequence (Q92843 1-193 Q133R): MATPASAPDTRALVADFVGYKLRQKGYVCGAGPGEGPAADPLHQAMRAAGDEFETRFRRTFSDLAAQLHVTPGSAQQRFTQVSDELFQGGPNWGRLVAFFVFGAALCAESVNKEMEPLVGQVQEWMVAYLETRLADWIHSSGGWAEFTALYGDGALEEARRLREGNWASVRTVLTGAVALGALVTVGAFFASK

T2: Bcl-wΔC29 (Homo sapiens, UniProt Q92843, Q133R)
T2 construct: GST (N, cleaved yes); made in house; host or cells: E. coli BL21(DE3)
T2 sequence (Q92843 1-164 Q133R): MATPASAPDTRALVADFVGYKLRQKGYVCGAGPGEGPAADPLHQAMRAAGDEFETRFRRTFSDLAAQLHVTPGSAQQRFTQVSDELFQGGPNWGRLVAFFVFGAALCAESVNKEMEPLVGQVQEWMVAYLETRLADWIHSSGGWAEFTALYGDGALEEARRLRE

T3: Bcl-wΔC10 (Homo sapiens, UniProt Q92843, A128E/Q133R)
T3 construct: made in house; host or cells: E. coli BL21(DE3)
T3 sequence (Q92843 1-183 A128E/Q133R): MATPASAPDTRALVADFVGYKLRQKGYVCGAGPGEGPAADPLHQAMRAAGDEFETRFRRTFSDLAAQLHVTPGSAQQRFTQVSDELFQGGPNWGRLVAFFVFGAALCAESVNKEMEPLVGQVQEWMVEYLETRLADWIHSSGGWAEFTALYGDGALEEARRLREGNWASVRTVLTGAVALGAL

T4: Bcl-wΔC20 (Homo sapiens, UniProt Q92843, Q133R)
T4 construct: made in house; host or cells: E. coli BL21(DE3)
T4 sequence (Q92843 1-173 Q133R): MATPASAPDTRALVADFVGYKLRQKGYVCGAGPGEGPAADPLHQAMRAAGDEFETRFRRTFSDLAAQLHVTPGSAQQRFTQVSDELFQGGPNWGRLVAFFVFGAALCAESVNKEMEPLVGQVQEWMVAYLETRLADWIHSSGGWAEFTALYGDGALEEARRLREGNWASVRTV

B1: BimLΔC27: Purified, C-terminally truncated mouse BimL, a BH3-only protein (protein)
chain: GPLGSMAKQPSDVSSECDREGGQLQPAERPPQLRPGAPTSLQTEPQDRSPAPMSCDKSTQTPSPPCQAFNHYLSAMASIRQSQEEPEDLRPEIRIAQELRRIGDEFNETYTRRVFAND
B2: BimLΔC27-L94A: Mutant version of C-terminally truncated BimL with BH3 domain mutation L94A (protein)
chain: B1 chain with L99A
B3: BimL-L94A: BimL with BH3 mutation L94A (protein)
chain: MAKQPSDVSSECDREGGQLQPAERPPQLRPGAPTSLQTEPQDRSPAPMSCDKSTQTPSPPCQAFNHYLSAMASIRQSQEEPEDLRPEIRIAQEARRIGDEFNETYTRRVFANDYREAEDHPQMVILQLLRFIFRLVWRRH
modifications: left off: small tags and cut ends
B4: Bcl-wΔC5: C-terminal truncated variant of Bcl-w lacking 5 residues (protein)
single chain: MATPASAPDTRALVADFVGYKLRQKGYVCGAGPGEGPAADPLHQAMRAAGDEFETRFRRTFSDLAAQLHVTPGSAQQRFTQVSDELFQGGPNWGRLVAFFVFGAALCAESVNKEMEPLVGQVQEWMVAYLETRLADWIHSSGGWAEFTALYGDGALEEARRLREGNWASVRTVLTGAVALGALVTVGA
B5: Bcl-wΔC3: C-terminal truncated variant of Bcl-w lacking 3 residues (protein)
single chain: MATPASAPDTRALVADFVGYKLRQKGYVCGAGPGEGPAADPLHQAMRAAGDEFETRFRRTFSDLAAQLHVTPGSAQQRFTQVSDELFQGGPNWGRLVAFFVFGAALCAESVNKEMEPLVGQVQEWMVAYLETRLADWIHSSGGWAEFTALYGDGALEEARRLREGNWASVRTVLTGAVALGALVTVGAFF
B6: Bcl-wΔC10: SEQ ID NO:2; Bcl-w derivative lacking the last 10 residues, Ala128 substituted with glutamate (protein)
chain: T3 sequence (Q92843 1-183 A128E/Q133R)
modifications: Bcl-w deltaC10 A128E
notes: Bcl-w derivative lacking the last 10 residues, Ala128 substituted with glutamate

Key:
[1] = target: T1, full length Bcl-w; assay: GST pull-down; type: binding; set-up: N-terminally FLAG-tagged full-length or C-terminally truncated Bcl-w; expressed in transfected cells; host or cells: 293T human embryonic kidney cells (pEF-based vector, transient)
Source text: (§1) Human Bcl-w and mouse BimL were expressed as glutathione-S-transferase (GST) fusion proteins in E. coli BL21(DE3) and purified by affinity chromatography using Glutathione Sepharose (APB; Amersham Pharmacia Biotech). Following purification of the GST-fusion proteins Bcl-w and Bim were released from GST using PreScission protease (APB) and then further purified by size exclusion chromatography using a Superdex-75 column. All the purified proteins have 5 additional N-terminal residues (GPLGS) as a result of cloning. Isotopically labelled proteins were prepared as described previously (Day et al., 1999). Samples of Bcl-wΔC10 used for NMR contained ˜1.0 mM protein in 50 mM sodium phosphate (pH 6.7), 70 mM NaCl, 2 mM tris-(2-carboxyethyl) phosphine (TCEP) and 0.04% sodium azide in H2O:^2H2O (95:5). The Bcl-wΔC5 sample contained 0.4 mM protein in the same buffer. Site specific mutants of BimL and Bcl-w were generated using a PCR based strategy as described previously (Day et al., 1999). The sequence of all clones was confirmed by sequencing.
(§2) Direct interactions between Bcl-w and BimL were monitored using GST pull-down experiments. These were performed in 100 μl of PBS (phosphate buffered saline pH 7.3) containing 2 mM DTT. Typically excess soluble proteins were added to equivalent amounts of resin bound proteins. […]

[2] = target: T2, Bcl-wΔC29; assay: BIAcore surface plasmon resonance, truncated Bcl-w in solution on immobilised Bim; type: binding; conditions: for Kd: Bcl-w truncated by 29 residues at the C-terminus
Source text: as §1
Analysis of protein interactions by surface plasmon resonance was carried out on a BIAcore 2000 biosensor (BIAcore). For the immobilisation to BIAcore CM 5 sensorchips (BIAcore), wild-type or mutant Bim proteins were buffer exchanged into 20 mM Na-acetate, pH 4.5. N-hydroxysuccinimide coupling and binding analysis was done as described previously (Lackmann et al., 1997). In order to minimise mass-transport mediated effects the kinetic experiments were routinely carried out at 20 μl/min. Bcl-w binding at concentrations between 2 and 0.03 μM in running buffer (10 mM HEPES, pH 7.4, 150 mM NaCl, 3.4 mM EDTA, 0.005% Tween 20) was performed on sensorchip surfaces derivatised on parallel channels with a non-relevant protein, BimLΔC27 and BimLΔC27-L94A. The binding kinetics were derived from the sensorgrams following subtraction of baseline responses (measured on the control channel) by ‘global analysis’ using the BIA Evaluation software (vers. 3.02, BIAcore). […]

[3] = target: T3, Bcl-wΔC10; assay: GST pull-down; type: binding
Source text: as §1
(§3) Direct interactions between Bcl-w and BimL were monitored using GST pull-down experiments. These were performed in 100 μl of PBS (phosphate buffered saline pH 7.3) containing 2 mM DTT. Typically excess soluble proteins were added to equivalent amounts of resin bound proteins. After incubation at room temperature for 30 minutes the resin was pelleted and then washed twice with 200 μl of PBS containing 0.2% Tween 20. After removal of the second wash 10 μl of SDS-PAGE sample buffer was added to each sample and the samples were boiled then loaded onto 16% polyacrylamide gels that were electrophoresed and stained with Coomassie Blue R250. The staining intensity of the bound soluble protein indicated the strength of the interaction between the two proteins.

[4] = target: T4, Bcl-wΔC20; assay: GST pull-down; type: binding
Source text: as §1, §3

[5] = target: T2, Bcl-wΔC29; assay: GST pull-down; type: binding
Source text: as §1, §3

[6] = target: T1, full length Bcl-w; assay: BIAcore surface plasmon resonance, Bcl-w protein in solution on immobilised Bim; type: binding; set-up: GST (N, cleaved yes); made in house; host or cells: E. coli BL21(DE3); conditions: for Kd: 1:1 Langmuir model, global analysis
Source text: as §1
Analysis of protein interactions by surface plasmon resonance was carried out on a BIAcore 2000 biosensor (BIAcore). For the immobilisation to BIAcore CM 5 sensorchips (BIAcore), wild-type or mutant Bim proteins were buffer exchanged into 20 mM Na-acetate, pH 4.5. N-hydroxysuccinimide coupling and binding analysis was done as described previously (Lackmann et al., 1997). In order to minimise mass-transport mediated effects the kinetic experiments were routinely carried out at 20 μl/min. Bcl-w binding at concentrations between 2 and 0.03 μM in running buffer (10 mM HEPES, pH 7.4, 150 mM NaCl, 3.4 mM EDTA, 0.005% Tween 20) was performed on sensorchip surfaces derivatised on parallel channels with a non-relevant protein, BimLΔC27 and BimLΔC27-L94A. The binding kinetics were derived from the sensorgrams following subtraction of baseline responses (measured on the control channel) by ‘global analysis’ using the BIA Evaluation software (vers. 3.02, BIAcore). The surface of the chip was regenerated with 50 mM 1,2-diethylamine containing 0.1% Triton X100, followed by two washes with running buffer.

[7] = target: T5, Bcl-xLΔC24 (Homo sapiens, UniProt Q07817); assay: Co-immunoprecipitation / GST pull-down; type: binding; conditions: C-terminally truncated Bcl-xL (ΔC24)
T5 construct: expressed in transfected cells
Source text: (§4) Bcl-xL and Bcl-2 also contain hydrophobic residues at their C-termini, similar to those found in Bcl-w (FIG. 1C), yet the low level of sequence identity following α8 and the absence of 3D-structural information, makes prediction of their conformation difficult. Since BCl-xL, like Bcl-w, is only partially membrane-bound in healthy cells (Hsu et al., 1997), we compared the ability of FLAG-tagged full-length Bcl-xL or a C-terminally truncated mutant (ΔC24) to bind to BimL or the […]L94A B3 mutant.
as §2, with “proteins. After incubation at room temperature for 30 minutes the resin was pelleted and then washed twice with 200 μl of PBS containing 0.2% Tween 20.” for “proteins.”
(§5) Cell culture, stable transfections into FDC-P1, transient transfections into 293T human embryonic kidney cells, metabolic labelling with ^35S-methionine/cysteine (NEN) and co-immunoprecipitation have been previously described (O'Connor et al., 1998, Moriishi et al., 1999; Huang et al., 1998; Wilson-Annan et al., 2003). […] The immunoprecipitates were resolved by SDS-PAGE (Novex), transferred onto nitrocellulose membranes (APB) and the proteins detected by fluorography (Amplify; APB).

[8] = target: T6, full-length Bcl-xL (Homo sapiens, UniProt Q07817); assay: Co-immunoprecipitation from cell extracts; type: binding; conditions: FLAG-tagged full-length Bcl-xL
T6 construct: FLAG-tagged full-length Bcl-xL or a C-terminally truncated mutant (ΔC24); expressed in transfected cells
Source text: as §4
as §5, with “2003). Briefly, mammalian pEF-based expression vectors for Bcl-w, BCl-xL, Bim, Bmf, Bad and Bik (O'Connor et al., 1998, Huang et al., 1998; Moriishi et al., 1999; Wilson-Annan et al., 2003) were transiently transfected using liposome mediated transfection (Lipofectamine™; Invitrogen).” for “2003).”

[9] = test system: FDC-P1 myeloid cells; assay: Survival assay of cells overexpressing Bcl-w constructs; type: cell-based; conditions: overexpressed FLAG-tagged protein, IL-3 withdrawal, γ-irradiation or cytotoxic drugs
Procedure: Like its cousins Bcl-2 and Bcl-xL, Bcl-w overexpression protects cells from diverse death stimuli, including cytokine deprivation and γ-irradiation (Gibson et al., 1996).
Survival assays were performed as described previously (O'Connor et al., 1998; Huang et al., 1998; Wilson-Annan et al., 2003; and references therein). Briefly, cells (2−5×10^4 per time point) were left untreated, deprived of their essential growth factor IL-3, exposed to 10Gy γ-irradiation (provided by a ^60Co source), 1-100 nM staurosprorine (Sigma). Cell viability was quantified by flow cytometric analysis of cells excluding 5 μg/mL PI (Sigma) using a FACScan (Becton Dickinson). Each time point was performed in triplicate on at least 3 independent clones of each genotype and the experiments repeated at least 3 times.

T6 sequence (Q07817 whole entry, species assumed, the tested form may be a part): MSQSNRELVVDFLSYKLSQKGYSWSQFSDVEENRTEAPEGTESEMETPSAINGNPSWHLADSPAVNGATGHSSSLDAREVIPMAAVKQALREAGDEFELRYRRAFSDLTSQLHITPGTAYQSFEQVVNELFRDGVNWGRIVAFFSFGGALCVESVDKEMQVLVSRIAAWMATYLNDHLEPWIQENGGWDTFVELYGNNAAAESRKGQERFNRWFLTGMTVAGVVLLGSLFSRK
T5 sequence (Q07817 1-209 limits assumed, stated change not applied): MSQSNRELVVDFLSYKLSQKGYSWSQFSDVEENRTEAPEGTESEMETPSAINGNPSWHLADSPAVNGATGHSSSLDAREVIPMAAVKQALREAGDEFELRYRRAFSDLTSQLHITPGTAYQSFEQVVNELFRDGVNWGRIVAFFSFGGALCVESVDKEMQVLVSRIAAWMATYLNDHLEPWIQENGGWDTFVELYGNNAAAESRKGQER

Row | Molecule | binding in GST pull-down [1] | Kd [2] [nM] | binding in GST pull-down [3] | binding in GST pull-down [4] | binding in GST pull-down [5] | Kd [6] [nM] | pro-survival activity [9] | further results
1 | B1 | bound | 11 | bound | bound equally well | bound equally well | 24 |  | increase in the association rate versus full length Bcl-w ([2]; Bcl-wΔC29): three-fold
2 | B2 | only bound wt BimLΔC27 | 13 | only bound wt BimLΔC27 | bound equally well | bound equally well | 1600 |  | decrease in the association rate versus wild-type Bim [6]: 10 fold; increase in the dissociation rates versus wild-type Bim [6]: five-fold; reduction of affinity versus wild-type Bim [6]: over 60 fold
3 | B3 |  |  |  |  |  |  |  | binding [7]: bound wild-type BimL and the L94A mutant equally; association in cell extracts [8]: associates only with wild-type BimL
4 | B4 |  |  |  |  |  |  | behaved like the full-length protein | pro-survival activity ([9]; listed as ΔC5): fully active
5 | B5 |  |  |  |  |  |  | fully active | 
6 | B6 |  |  |  |  |  |  | biologically inert | 
